Measured values: US20260146093A1 (DREN BIO MANAGEMENT, published 2026)

T1: human Trop-2 expressed on cells (A-431, NCI-N87, SKBR3, CHO-K1-hTrop2) (human, UniProt P09758 27-323)
T1 sequence: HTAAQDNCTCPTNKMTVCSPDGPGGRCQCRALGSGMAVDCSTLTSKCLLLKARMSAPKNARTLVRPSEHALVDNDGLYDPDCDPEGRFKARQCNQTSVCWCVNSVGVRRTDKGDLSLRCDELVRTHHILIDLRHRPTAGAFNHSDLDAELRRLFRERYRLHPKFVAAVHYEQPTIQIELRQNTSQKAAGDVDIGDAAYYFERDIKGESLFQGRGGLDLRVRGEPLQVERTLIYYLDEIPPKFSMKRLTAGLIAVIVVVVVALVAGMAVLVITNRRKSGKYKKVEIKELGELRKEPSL

T2: human Dectin-1 isoform A on HEK-Blue hDectin-1a cells (human, UniProt Q9BXN2 1-247)
T2 sequence: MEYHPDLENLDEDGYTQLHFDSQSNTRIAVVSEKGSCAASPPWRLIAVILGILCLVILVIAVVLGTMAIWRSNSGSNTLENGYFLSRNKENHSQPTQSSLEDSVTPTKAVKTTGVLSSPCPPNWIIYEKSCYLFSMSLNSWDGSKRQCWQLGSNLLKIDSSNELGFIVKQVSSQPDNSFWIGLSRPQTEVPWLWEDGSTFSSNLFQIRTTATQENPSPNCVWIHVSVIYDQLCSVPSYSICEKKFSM

B1: Dectin-1 2M24.124 x Trop-2 clone A hIgG1 (bispecific antibody)
anti-Dectin-1 heavy chain: QVQLVQSGAEVKKPGASVKVSCKASGYTFTDYYMHWVRQAPGQGLEWMGWINPNEGDTNYAQKFEGRITMTRDTSISTAYMELSRLRSDDTAVYYCARNTGAYSFGYWGCGTLVTVSS
anti-Dectin-1 light chain: DIQMTQSPSSVSASVGDRVTITCRASQGISSWLAWYQQKPGKCPKLLIYGASDLQSGVPSRFSGSGSGTDFTLTISSLQPEDFATYYCQQAYGFPFTFGPGTKVDIK
anti-Trop-2 heavy chain: QVQLQQSGSELKKPGASVKVSCKASGYTFTNYGMNWVKQAPGQGLKWMGWINTYTGEPTYTDDFKGRFAFSLDTSVSTAYLQISSLKADDTAVYFCARGGFGSSYWYFDVWGQGSLVTVSS
anti-Trop-2 light chain: DIQLTQSPSSLSASVGDRVSITCKASQDVSIAVAWYQQKPGKAPKLLIYSASYRYTGVPDRFSGSGSGTDFTLTISSLQPEDFAVYYCQQHYITPLTFGAGTKVEIK
notes: member of group m9; also called 2M24.124xTrop-2 clone A hG1; disulfide-engineered Fab-format bispecific, clone A
B2: Dectin-1 2M24.124 x Trop-2 clone B hIgG1 (bispecific antibody)
anti-Dectin-1 heavy chain: B1 anti-Dectin-1 heavy chain
anti-Dectin-1 light chain: B1 anti-Dectin-1 light chain
anti-Trop-2 heavy chain: QVQLQESGPGLVKPSGTLSLTCAVSGGSISSSNWWSWVRQPPGKGLEWIGEIYHDGSTDYFPSLKSRVTISVDKSKNQFSLKLSSVTAADTAVYYCARDNWGFDYWGQGTLVTVSS
anti-Trop-2 light chain: DIVLTQSPGTLSLSPGERATLSCRASQSVSSSYLAWYQQKPGQAPRLLISGASSRATGIPDRFSGSGSGTDFTLTISRLEPEDFAVYYCQQYGSSHRTFGQGTKVEIK
notes: member of group m9; also called 2M24.124xTrop-2 clone B hG1; disulfide-engineered Fab-format bispecific, clone B

Experiments:
[1] = molecular target: T1, human Trop-2 expressed on cells (A-431, …); experiment: flow cytometry on CHO-K1 cells expressing hTrop-2 (sheet title: Binding to Chok1 hTrop2)
[2] = molecular target: T2, human Dectin-1 isoform A on HEK-Blue …; experiment: flow cytometry on HEK cells expressing hDectin-1 (sheet title: Binding to HEK Blue Dectin 1a cells)
[3] = molecular target: T2, human Dectin-1 isoform A on HEK-Blue …; experiment: cell-based or functional assay

Binder	EC50 (read off the curve) [1] [nM]	EC50 (read off the curve) [2] [nM]	EC50 of SEAP secretion by the hDectin-1 reporter cells (hDec1 Reporter Assay; the Trop-2-expressing cell line is not named) [3] [nM]
B1	~5	~0.7	0.62
B2	~7	~0.7	0.61
